Measurements reported in patent US20260234211A1 (GUANGDONG RAYNOVENT BIOTECH, published 2026).
Bridge positions count the residues as written; N and C are the ends. Square brackets hold non-standard residues; d marks the D form. Ends that are not written are not given here. Aib = CC(C)(N)C(=O)O

T1: GIP receptor (GIPR)
T1 sequence (P48546 whole entry, species assumed, looked up): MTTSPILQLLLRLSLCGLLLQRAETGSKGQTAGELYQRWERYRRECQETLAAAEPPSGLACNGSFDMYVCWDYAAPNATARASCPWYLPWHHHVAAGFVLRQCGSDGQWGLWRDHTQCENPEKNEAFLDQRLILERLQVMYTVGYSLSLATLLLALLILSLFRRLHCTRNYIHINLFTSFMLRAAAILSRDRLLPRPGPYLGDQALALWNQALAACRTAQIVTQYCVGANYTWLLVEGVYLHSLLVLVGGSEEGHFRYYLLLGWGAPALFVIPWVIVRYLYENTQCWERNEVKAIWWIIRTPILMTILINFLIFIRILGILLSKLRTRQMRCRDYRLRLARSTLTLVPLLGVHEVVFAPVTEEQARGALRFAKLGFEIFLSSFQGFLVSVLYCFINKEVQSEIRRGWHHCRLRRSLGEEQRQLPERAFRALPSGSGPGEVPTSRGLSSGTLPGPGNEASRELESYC

B1: Example 5 (peptide)
peptide: H[Aib]HGTFTSDYSIYLEKKYA[Aib]KFVQWLLEGGPSSGAPPPS-NH2
modifications: bridge 17-21; not fully specified (residues 17, 21, bridges); also: staple structure only in drawing
B2: Example 4 (peptide)
peptide: H[Aib]HGTFTSDYSIYLEKKYA[Aib]EFVKWLLKGGPSSGAPPPS-NH2
modifications: bridge 24-28; not fully specified (residues 24, 28, bridges); also: staple structure only in drawing

Assays:
Experiment in all cases: cell-based or functional assay
GCG receptor (GCGR) = biological target: GCG receptor (GCGR)
GIP receptor (GIPR) = biological target: T1, GIP receptor (GIPR)
GLP-1 receptor (GLP-1R) = biological target: GLP-1 receptor (GLP-1R)

Binder	GCG EC50 (nM), cAMP assay on HEK293 cells with GCGR (GCG receptor (GCGR))	GIP-1 EC50 (nM), cAMP assay on CHO cells with GIPR (GIP receptor (GIPR))	GLP-1 EC50 (nM), cAMP assay on HEK293 cells with GLP-1R (GLP-1 receptor (GLP-1R))
B1	0.012 nM	0.007 nM	0.029 nM
B2	0.143 nM	0.016 nM	0.023 nM
